These results are taken from article PMC1557793.

Read-outs that look alike come from different tables or passages of the source.

In data set [1] the target is E1 helicase domain of bovine papillomavirus type-1 (BPV-1) E1 (bovine papillomavirus type-1 (BPV-1)). The data set is described as follows: SEC + other: glycerol gradient sedimentation.
Data set [2] has the same target. The data set is described as follows: SEC. In general terms: Size exclusion chromatography separates by hydrodynamic size, large species first.
For data set [3], the target named is T1, E1HD (E1 helicase domain) (bovine papillomavirus type 1 (BPV-1), UniProt P03116 299-605). The data set is described as follows: EMSA. (In general: A gel shift assay detects complexes by their altered migration in electrophoresis.)
Data set [4] has as its target T1, E1HD (E1 helicase domain). The data set is described as follows: EMSA. The source holds these as a separate data set.
In data set [5] the target is T1, E1HD (E1 helicase domain). The data set can be described thus: EMSA. This is another data set of the same source.
Data set [6] concerns the target T1, E1HD (E1 helicase domain). The data set can be described thus: EMSA. This is another data set of the same source.
For data set [7], the target named is T1, E1HD (E1 helicase domain). The data set is described as follows: EMSA. The source holds these as a separate data set.
The target of data set [8] is T1, E1HD (E1 helicase domain). The data set can be described thus: gel filtration.

Broadly, the stoichiometry N is a count of units in the complex or per binding partner. As usually defined, the Kd is the free concentration of one partner at which half of the binding sites on the other are occupied at equilibrium, for simple one-to-one binding.

T1 sequence (P03116 299-605): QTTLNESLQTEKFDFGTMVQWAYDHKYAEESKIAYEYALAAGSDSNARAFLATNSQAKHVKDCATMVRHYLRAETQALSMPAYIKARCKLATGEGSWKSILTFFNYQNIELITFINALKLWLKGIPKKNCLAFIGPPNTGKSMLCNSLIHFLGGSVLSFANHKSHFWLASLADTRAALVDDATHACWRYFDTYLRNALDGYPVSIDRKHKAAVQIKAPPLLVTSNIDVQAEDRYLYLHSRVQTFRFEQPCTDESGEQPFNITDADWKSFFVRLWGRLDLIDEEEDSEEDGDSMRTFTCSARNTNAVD
E1 helicase domain of bovine papillomavirus type-1 (BPV-1) E1 (domain or fragment), sequence (P03116 whole entry, the tested form may be a part): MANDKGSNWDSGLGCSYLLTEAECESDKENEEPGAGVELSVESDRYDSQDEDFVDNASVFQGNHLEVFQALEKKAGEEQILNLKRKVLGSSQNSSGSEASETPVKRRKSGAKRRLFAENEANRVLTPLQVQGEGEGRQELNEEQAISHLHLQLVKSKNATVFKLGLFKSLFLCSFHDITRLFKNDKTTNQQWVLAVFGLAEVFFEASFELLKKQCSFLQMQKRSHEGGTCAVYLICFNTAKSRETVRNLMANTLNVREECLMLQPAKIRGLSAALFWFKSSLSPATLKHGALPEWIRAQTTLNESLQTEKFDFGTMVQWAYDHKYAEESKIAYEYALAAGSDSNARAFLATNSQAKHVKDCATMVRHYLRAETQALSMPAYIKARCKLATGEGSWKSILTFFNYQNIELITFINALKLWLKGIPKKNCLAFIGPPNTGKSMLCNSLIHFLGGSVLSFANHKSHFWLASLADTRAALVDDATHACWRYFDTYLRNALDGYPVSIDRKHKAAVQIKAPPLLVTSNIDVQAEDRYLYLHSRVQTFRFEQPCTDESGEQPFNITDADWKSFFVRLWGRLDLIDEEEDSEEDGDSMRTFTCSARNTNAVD

For “E1 helicase domain of bovine papillomavirus type-1 (BPV-1) E1 (domain or fragment)”, the stoichiometry N in data set [1] was determined as 6. In data set [2], this molecule showed a percent of protein oligomeric of 40% and a stoichiometry N of 6.
In the case of TTTTTTTTTTTTTTTTTTTT (ssDNA) [T20], in data set [3], the binding result is “binds”.
With TTTTTTTTTTTTTTTTTTTTTTTTTTTTTT (ssDNA) [T30], the results for the Kd in data set [4] and in data set [5] were 297 ± 7 nM and 1830 ± 290 nM, respectively.
For the molecule TTTTTT (ssDNA) [T6], the binding result in data set [6] is reported as “no binding”.
Regarding TTTTTTTTTTTTTTTTTTTTTTTTTTTTTTTTTTTTTTTTTT (ssDNA) [T42], the binding result in data set [7] is on record as “binds”.
For the molecule TTTTTTTTTTTTTTTTTT (ssDNA) [T18], in data set [8], the binding result is given as “binds”.
For TTTTTTTTTTTTTTTT (ssDNA) [T16], the binding result in data set [3] is on record as “binds”.
